Legend:
[1] = target: CD79b CAR with CD8α hinge as the spacer; experiment: flow cytometry, NK cell line-2 transduced with CD79b CAR construct 441HL at MOI 5, AF647-CD79b at 1 µg/ml; same gate on untransduced (UTD) cells 0.32
Target sequence (P01732 138-182): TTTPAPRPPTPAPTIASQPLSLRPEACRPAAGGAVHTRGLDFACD

[2] = target: CD79b CAR with CD8α hinge as the spacer; experiment: flow cytometry, NK cell line-2 transduced with CD79b CAR construct 137LH at MOI 20, AF647-CD79b at 1 µg/ml; same gate on untransduced (UTD) cells 0.32
[3] = target: CD79b CAR with CD8α hinge as the spacer; experiment: flow cytometry, NK cell line-1 transduced with CD79b CAR construct 441HL at MOI 5, AF647-CD79b at 1 µg/ml; same gate on untransduced (UTD) cells 0.23
[4] = target: CD79b CAR with CD8α hinge as the spacer; experiment: flow cytometry, NK cell line-2 transduced with CD79b CAR construct 441HL at MOI 20, AF647-CD79b at 1 µg/ml; same gate on untransduced (UTD) cells 0.32
[5] = target: CD79b CAR with CD8α hinge as the spacer; experiment: flow cytometry, NK cell line-1 transduced with CD79b CAR construct 137LH at MOI 5, AF647-CD79b at 1 µg/ml; same gate on untransduced (UTD) cells 0.23
[6] = target: CD79b CAR with CD8α hinge as the spacer; experiment: flow cytometry, NK cell line-1 transduced with CD79b CAR construct 441HL at MOI 20, AF647-CD79b at 1 µg/ml; same gate on untransduced (UTD) cells 0.23
[7] = target: CD79b CAR with CD8α hinge as the spacer; experiment: flow cytometry, NK cell line-1 transduced with CD79b CAR construct 137LH at MOI 20, AF647-CD79b at 1 µg/ml; same gate on untransduced (UTD) cells 0.23
[8] = target: CD79b CAR with CD8α hinge as the spacer; experiment: flow cytometry, NK cell line-2 transduced with CD79b CAR construct 137LH at MOI 5, AF647-CD79b at 1 µg/ml; same gate on untransduced (UTD) cells 0.32

AF647-CD79b, sequence (P40259 29-159 limits assumed): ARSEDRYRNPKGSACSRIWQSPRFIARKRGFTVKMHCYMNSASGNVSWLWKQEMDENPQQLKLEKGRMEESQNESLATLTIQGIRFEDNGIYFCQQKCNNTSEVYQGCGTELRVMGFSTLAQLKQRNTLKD

A % positive (CD79b CAR+ NK cells) [1] of 72.2%, a % positive (CD79b CAR+ NK cells) [2] of 71.2% and a % positive (CD79b CAR+ NK cells) [3] of 69.9% were found for “AF647-CD79b (from UniProt P40259 29-159)” in this work. It also gave a % positive (CD79b CAR+ NK cells) [4] of 85.2%, a % positive (CD79b CAR+ NK cells) [5] of 67.1% and a % positive (CD79b CAR+ NK cells) [6] of 80.8%. For the same substance, the % positive (CD79b CAR+ NK cells) [7] was 74.5% and the % positive (CD79b CAR+ NK cells) [8] was 47.4%.

Reference: US20230174651A1
